Laboratory results as given in patent publication US20030027766A1 (University of Texas, published 2003).
One block for each molecule: values may come before it.

How the values were obtained:
HLA-A2 [1] = target: T1, HLA-A2 (human); assay: immunofluorescence staining of ovarian tumor OVA-14
T1 construct: allele written as A*02:01 on that basis; also called HLA-A2.1; A2.1

HLA-A2 [2] = target: T1, HLA-A2; assay: immunofluorescence staining of ovarian tumor OVA-16
HLA-A2 [3] = target: T1, HLA-A2; assay: HLA-A2 stabilization on T2 cells, against D113
[4] = target: certain MHC Class I heavy chains other than HLA-A2; assay: cell-based or functional assay
HLA-A2 [5] = target: T1, HLA-A2; assay: HLA-A2 stabilization on T2 cells

% HLA-A2 positive cells (HLA-A2 [1]): 92.1%
mean fluorescence (HLA-A2 [1]): 49
% HLA-A2 positive cells (HLA-A2 [2]): 85.3%
mean fluorescence (HLA-A2 [2]): 42
Molecule: mAb MA2.1 (anti-HLA-A2) (antibody)

binding result (HLA-A2 [3]): binds
Molecule: GLYQGCQVV (Synthetic analog) [D115 = HER-2:48-56(48H->G)]

binding result (HLA-A2 [3]): binds
Molecule: RLLYQGCQVV (Synthetic analog) [D114 = HER-2:47-56(48H->L)]

inhibition of lysis of OVA-1 tumor (HLA-A2 negative) by autologous CTL-1 after pre-pulsing with peptide [4]: 45%
Molecule: RFRELVSEFSRMAR [C43 (HER-2:968-981)]

binding result (HLA-A2 [5]): binds
Molecule: ELVSEVSKV [C81 (analog of HER-2:971-979, F->V, RM->KV)]

binding result (HLA-A2 [5]): binds
Molecule: ELVSEFSRV (Synthetic analog of C85) [C84 (HER-2:971-979(Val))]

inhibition of lysis of OVA-1 tumor (HLA-A2 negative) by autologous CTL-1 after pre-pulsing with peptide [4]: 25%
Molecule: RFRELIIEFSRMAR [C44 (analog of HER-2:968-981, VS->II)]
